{"source": "paper PMC2700083", "about": "“A covalent peptide inhibitor of RGS4 identified in a focused one-bead, one compound library screen” (BMC Pharmacology, 2009)", "binders": {"B1": {"name": "MBP-RGS4Δ51N, wild type, biotinylated (domain or fragment, UniProt P49799 52-205, looked up)", "chain": "SQEEVKKWAESLENLINHECGLAAFKAFLKSEYSEENIDFWISCEEYKKIKSPSKLSPKAKKIYNEFISVQATKEVNLDSCTREETSRNMLEPTITCFDEAQKKIFNLMEKDSYRRFLKSRFYLDLTNPSSCGAEKQKGAKSSADCTSLVPQCA", "modifications": "biotin (sites not given)", "notes": "RGS4 from which the amphipathic N-terminal helix has been removed (RGS4Δ51N); Rat RGS4 is surmised from the group's earlier work; His6 lies between MBP and RGS4 (MBP-His6-RGS4Δ51N) with a TEV site; also called wild type RGS4-biotin; biotin-RGS4; source: expressed, purified and labeled as described previously [5]; not shown: MBP, N-terminal, kept"}, "B2": {"name": "MBP-RGS4Δ51N C71A (domain or fragment, UniProt P49799 52-205, looked up)", "chain": "B1 chain with C20A", "modifications": "biotin (sites not given)", "notes": "RGS4Δ51N; source: expressed, purified and labeled as described previously [5]; not shown: MBP, N-terminal, kept"}, "B3": {"name": "MBP-RGS4Δ51N C95A (domain or fragment, UniProt P49799 52-205, looked up)", "chain": "B1 chain with C44A", "modifications": "biotin (sites not given)", "notes": "as for B2"}, "B4": {"name": "MBP-RGS4Δ51N C132A (domain or fragment, UniProt P49799 52-205, looked up)", "chain": "B1 chain with C81A", "modifications": "biotin (sites not given)", "notes": "as for B2"}, "B5": {"name": "Peptide 6nd (KHCYGFCY-NH2, S-S) (peptide)", "peptide": "H-KHCYGFCY-NH2", "modifications": "disulfide 3-7 (inferred)", "notes": "hit peptide from the focused OBOC library screen; also called hit 6; peptide 14 in Roof et al 2008; source: synthetic peptide"}, "B6": {"name": "Peptide 5ad (Ac-YWCKGLCK-NH2, S-S) (peptide)", "peptide": "Ac-YWCKGLCK-NH2", "modifications": "disulfide 3-7 (inferred)", "notes": "hit peptide from the focused OBOC library screen; source: synthetic peptide"}, "B7": {"name": "Peptide 2nd (GTCFGTCW-NH2, S-S) (peptide)", "peptide": "H-GTCFGTCW-NH2", "modifications": "disulfide 3-7 (inferred)", "notes": "hit peptide from the focused OBOC library screen; also called hit 2; source: synthetic peptide"}, "B8": {"name": "Peptide 6ad (Ac-KHCYGFCY-NH2, S-S) (peptide)", "peptide": "Ac-KHCYGFCY-NH2", "modifications": "disulfide 3-7 (inferred)", "notes": "as for B6"}, "B9": {"name": "Peptide 5nd (Tyr-Trp-c[Cys-Lys-Gly-Leu-Cys]-Lys-NH2, S-S) (peptide)", "peptide": "H-YWCKGLCK-NH2", "modifications": "disulfide 3-7", "SMILES": "CC(C)C[C@@H]1NC(=O)CNC(=O)[C@H](CCCCN)NC(=O)[C@@H](NC(=O)[C@H](Cc2c[nH]c3ccccc23)NC(=O)[C@@H](N)Cc2ccc(O)cc2)CSSC[C@@H](C(=O)N[C@@H](CCCCN)C(N)=O)NC1=O", "notes": "hit peptide from the focused OBOC library screen; also called peptide 7nd in Roof et al, 2008; hit 5; source: synthetic peptide"}, "B10": {"name": "MBP-RGS4Δ51N C148A (domain or fragment)", "chain": "not shown", "modifications": "biotin (sites not given)", "notes": "as for B2"}}, "details_in_all_cases": "both partners purified", "key": {"[1]": {"target": "T1, Gαo, Alexa Fluor 532-labeled (UniProt P59215 1-354, Alexa Fluor 532 label (sites not given))", "T1 construct": "G protein alpha subunit Gαo; Used in the presence of AMF (AlCl3, MgCl2, NaF and GDP) to put it into a transition state-like conformation; source: expressed, purified and labeled as described previously [5]", "experiment": "FCPIA (flow cytometry protein interaction assay, Luminex beads); Gαo affinities for RGS4Δ51N wild type and mutants on beads, with AMF"}, "[2]": {"target": "B1", "experiment": "FCPIA (flow cytometry protein interaction assay, Luminex beads); competition at one peptide concentration (50 μM unless the cell says otherwise); 5 nM wild type RGS4-biotin on avidin beads, 25 nM Gαo-Alexa Fluor 532, with AMF (AlCl3, MgCl2, NaF and GDP)"}, "[3]": {"target": "T2, RGS7 RGS domain (aa: 305–453), MBP fusion (human, UniProt P49802 305-453)", "T2 construct": "RGS7, human, RGS domain, aa 305-453; source: expressed, purified and labeled as described previously [5]", "T2 sequence (looked up)": "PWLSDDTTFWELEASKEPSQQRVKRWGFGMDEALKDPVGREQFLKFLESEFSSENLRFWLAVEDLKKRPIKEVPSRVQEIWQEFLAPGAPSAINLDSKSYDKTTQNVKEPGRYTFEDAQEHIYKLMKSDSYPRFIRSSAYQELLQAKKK", "experiment": "FCPIA (flow cytometry protein interaction assay, Luminex beads); dose response curves for 5nd with different RGS proteins on beads and labeled Gαo; curves constrained to 100% and 0%"}, "[4]": {"target": "B1", "experiment": "FCPIA (flow cytometry protein interaction assay, Luminex beads); dose response curves for 5nd with different RGS proteins on beads and labeled Gαo; curves constrained to 100% and 0%"}, "[5]": {"target": "T3, RGS8 full length, MBP fusion (human, UniProt P57771 1-180, biotin (sites not given))", "T3 construct": "RGS8, human, full length; source: expressed, purified and labeled as described previously [5]", "T3 sequence (looked up)": "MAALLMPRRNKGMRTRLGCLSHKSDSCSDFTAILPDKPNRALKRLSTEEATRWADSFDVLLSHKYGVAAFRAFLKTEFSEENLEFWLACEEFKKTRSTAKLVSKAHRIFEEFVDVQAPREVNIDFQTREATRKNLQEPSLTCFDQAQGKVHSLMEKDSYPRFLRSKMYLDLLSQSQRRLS", "experiment": "FCPIA (flow cytometry protein interaction assay, Luminex beads); dose response curves for 5nd with different RGS proteins on beads and labeled Gαo; curves constrained to 100% and 0%"}, "[6]": {"target": "T4, RGS19ΔC11 (amino acids 1–209), MBP fusion (human, UniProt P49795 1-209)", "T4 construct": "RGS19, human, ΔC11, amino acids 1-209; source: expressed, purified and labeled as described previously [5]", "T4 sequence (looked up)": "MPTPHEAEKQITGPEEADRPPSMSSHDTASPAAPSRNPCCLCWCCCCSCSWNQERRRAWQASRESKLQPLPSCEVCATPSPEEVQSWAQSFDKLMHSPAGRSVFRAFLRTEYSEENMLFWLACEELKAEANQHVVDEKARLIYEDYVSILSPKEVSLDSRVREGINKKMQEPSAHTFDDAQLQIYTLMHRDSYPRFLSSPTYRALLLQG", "experiment": "FCPIA (flow cytometry protein interaction assay, Luminex beads); dose response curves for 5nd with different RGS proteins on beads and labeled Gαo; curves constrained to 100% and 0%"}, "[7]": {"target": "T5, RGS16 full length, MBP fusion (human, UniProt O15492 1-202)", "T5 construct": "RGS16, human, full length; source: expressed, purified and labeled as described previously [5]", "T5 sequence (looked up)": "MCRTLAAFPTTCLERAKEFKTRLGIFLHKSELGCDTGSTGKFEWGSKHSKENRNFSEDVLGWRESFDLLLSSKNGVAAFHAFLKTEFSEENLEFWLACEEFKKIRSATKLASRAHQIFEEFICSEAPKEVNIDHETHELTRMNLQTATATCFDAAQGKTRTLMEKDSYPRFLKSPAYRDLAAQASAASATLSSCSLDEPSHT", "experiment": "FCPIA (flow cytometry protein interaction assay, Luminex beads); dose response curves for 5nd with different RGS proteins on beads and labeled Gαo; curves constrained to 100% and 0%"}, "MBP-RGS4Δ51N C71A": {"target": "B2", "experiment": "FCPIA (flow cytometry protein interaction assay, Luminex beads); dose curves of 5nd on RGS4 cysteine mutants (5 nM, or 20 nM for the mutants with no Cys in the domain or the C-terminus) and labeled Gαo; curves constrained to 100% and 0%"}, "MBP-RGS4Δ51N C148A": {"target": "B10", "experiment": "FCPIA (flow cytometry protein interaction assay, Luminex beads); dose curves of 5nd on RGS4 cysteine mutants (5 nM, or 20 nM for the mutants with no Cys in the domain or the C-terminus) and labeled Gαo; curves constrained to 100% and 0%"}, "[8]": {"target": "B1", "experiment": "FCPIA (flow cytometry protein interaction assay, Luminex beads); dose curves of 5nd on RGS4 cysteine mutants (5 nM, or 20 nM for the mutants with no Cys in the domain or the C-terminus) and labeled Gαo; curves constrained to 100% and 0%"}, "MBP-RGS4Δ51N C132A": {"target": "B4", "experiment": "FCPIA (flow cytometry protein interaction assay, Luminex beads); dose curves of 5nd on RGS4 cysteine mutants (5 nM, or 20 nM for the mutants with no Cys in the domain or the C-terminus) and labeled Gαo; curves constrained to 100% and 0%"}, "MBP-RGS4Δ51N C95A": {"target": "B3", "experiment": "FCPIA (flow cytometry protein interaction assay, Luminex beads); dose curves of 5nd on RGS4 cysteine mutants (5 nM, or 20 nM for the mutants with no Cys in the domain or the C-terminus) and labeled Gαo; curves constrained to 100% and 0%"}}, "note": "Substitutions are numbered along the chain they refer to. Bridges are numbered along the chain shown (N, C = ends)."}
{"binder": "B1", "values": [{"measurement": "Kd", "setting": "[1]", "value": 0.0116, "unit": "µM"}]}
{"binder": "B2", "values": [{"measurement": "Kd", "setting": "[1]", "value": 0.0122, "unit": "µM"}]}
{"binder": "B3", "values": [{"measurement": "Kd", "setting": "[1]", "value": 0.00817, "unit": "µM"}]}
{"binder": "B4", "values": [{"measurement": "Kd", "setting": "[1]", "value": 0.0079, "unit": "µM"}]}
{"binder": "B5", "values": [{"measurement": "% inhibition of RGS4-Gαo", "setting": "[2]", "value": 23, "unit": "%"}]}
{"binder": "B6", "values": [{"measurement": "% inhibition of RGS4-Gαo", "setting": "[2]", "value": 37, "unit": "%"}]}
{"binder": "B7", "values": [{"measurement": "% inhibition of RGS4-Gαo", "setting": "[2]", "value": 19, "unit": "%"}]}
{"binder": "B8", "values": [{"measurement": "% inhibition of RGS4-Gαo", "setting": "[2]", "value": 27, "unit": "%"}]}
{"binder": "B9", "values": [{"measurement": "% inhibition of RGS4-Gαo", "setting": "[2]", "value": 80, "unit": "%"}, {"measurement": "IC50", "setting": "[3]", "value": "~175", "unit": "µM"}, {"measurement": "logIC50", "setting": "[3]", "value": "~-3.76", "unit": "log M"}, {"measurement": "IC50", "setting": "[4]", "value": 28, "unit": "µM"}, {"measurement": "logIC50", "setting": "[4]", "value": -4.56, "unit": "log M"}, {"measurement": "IC50", "setting": "[5]", "value": 43, "unit": "µM"}, {"measurement": "logIC50", "setting": "[5]", "value": -4.36, "unit": "log M"}, {"measurement": "IC50", "setting": "[6]", "value": "~145", "unit": "µM"}, {"measurement": "logIC50", "setting": "[6]", "value": "~-3.84", "unit": "log M"}, {"measurement": "IC50", "setting": "[7]", "value": 66, "unit": "µM"}, {"measurement": "logIC50", "setting": "[7]", "value": -4.18, "unit": "log M"}, {"measurement": "logIC50", "setting": "MBP-RGS4Δ51N C71A", "value": -4.34, "unit": "log M"}, {"measurement": "logIC50", "setting": "MBP-RGS4Δ51N C148A", "value": -4.27, "unit": "log M"}, {"measurement": "logIC50", "setting": "[8]", "value": -4.36, "unit": "log M"}, {"measurement": "logIC50", "setting": "MBP-RGS4Δ51N C132A", "value": -3.86, "unit": "log M"}, {"measurement": "logIC50", "setting": "MBP-RGS4Δ51N C95A", "value": -4.71, "unit": "log M"}]}
{"binder": "B10", "values": [{"measurement": "Kd", "setting": "[1]", "value": 0.00684, "unit": "µM"}]}
